We go through 30 sequences from the nanobody polyreactivity screen of Harvey et al. (2022).

This data set in a line: yeast display, Sf9 membrane polyspecificity reagent, FACS + sequencing; frameworks hold sequencing errors. A digest of the protocol:
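Genes from sorted yeast were amplified by colony PCR, read by MiSeq 2 × 250 sequencing and filtered on CDR length. These cells carried a synthetic nanobody library in Saccharomyces cerevisiae BJ5465 and were sorted by FACS into low and high (top ~1%) gates on anti-HA and streptavidin fluorescence. Polyreactivity is labelled according to the gate of origin.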
As to “QVQLVESGGGLVQAGGSLRLSCAASGSTLAGYAMGWYRQAPGKERELVAAITRRGGRTYYADSVKGRFTISRDNAKNTVYLQMNSLKPEDTAVYYCAAQRSVKVDYWGQGTQVTVSS”, the “polyreactivity (PSR sort gate)” value is on record as “high polyreactivity”. For the sequence “QVQLVESGGGLVQAGGSLRLSCAASGSTLAGYAMGWYRQAPGQERELVAAIDWTGGSTTYADSVKGRFTISRDNAKNTVYLQMNSLKPEDTAVYYCNVDLGVNCEYWGQGTQVTVSW”, the “polyreactivity (PSR sort gate)” value is recorded as “low polyreactivity”. For the sequence “QVQLVESGGGLVQAGGSLRLSCAASGSTLAKYTMGWYRQAPGKERELVATISRRGGSTYYADSVKGRFTISRDNAKNTVYLQMNSLKPEDTAVYYCNAVGHTSIRRALDILDYWGQGTQVTVSS”, the “polyreactivity (PSR sort gate)” value is given as “high polyreactivity”. As for “QVQLVESGGGLVQAGGSLRLSCAASGSTLAPYVMGWYSQAPGKERELVAVISTRTGRTYYADSVKGRFTISRDNAKNTVSLQMNSLKPEDTAVYYCNAYPHAYTGSTREGDYWGQGTQVTVSS”, the entry is “high polyreactivity”; as for “QVQLVESGGGLVQAGGSLRLSCAASGSTLASYAMGWYSQAPGKERELVAVIDSGGSTYYADSVKGRFTISRDNAKNSVYVQMNSLKPEDTAVYDCAAGWEFSGVLTLFGYWGQGTQVTVSS”, “low polyreactivity”. As for “QVQLVESGGGLVQAGGSLRLSCAASGSTLATYTMGWYRLAPGTVRELVGAISFGGSTYYADSVKGRFTISRDNAKNTVYLQMNSLKPVDTAVYYCAVDGDSYWGAYYYSDGYWGQGTQVTVSS”, the “polyreactivity (PSR sort gate)” value is “low polyreactivity”. As for “QVQLVESGGGLVQAGGSLRLSCAASGSTLDSNAMGWYRQAPGKERELVAGIDWSGGSTYADSVKGRFTISRDNAKNTVYLQMNSLKPEDTAVYYCNRKLTRFTSFPLDYWGQGTQVTVSS”, the entry is “low polyreactivity”. On to “QVQLVESGGGLVQAGGSLRLSCAASGSTLEFNARGWSRQAPGKERELVAVINRSDGSTYYADSVKGRFTISRDNAKNTVYLQMNSLKPEDTAVYYCAADRHQVSVISTEDYWGQGTQVTVSS”, for which the “polyreactivity (PSR sort gate)” value is reported as “low polyreactivity”.

Turning to “QVQLVESGGGLVQAGGSLRLSCAASGSTLFINAMGWYRQAPGKERELVAAITSGTSTNYADSVKGRFTISRDNAKNTVYLQMNSLKPEDTAVYYCAVDYWYVPYYWGQGTQVTVSS”, the “polyreactivity (PSR sort gate)” value is “low polyreactivity”. Take “QVQLVESGGGLVQAGGSLRLSCAASGSTLFYYAMGCYRQAPGKERELVAAITQNGGGTYYADSVKGRFTISRDNAKNTVYLQMNSLKPEDTAVYYCAVTQEYIADHWYGYWGQGTQVTVSS”: the “polyreactivity (PSR sort gate)” value is “low polyreactivity”. The entry for “QVQLVESGGGLVQAGGSLRLSCAASGSTLGGYAMGWYRQAPGKERELVAAIRWGGNTYYADSVKGRFTISRDNAKNTVYLQMNSLKPEDTAVYYCAADRWYYFLMYYWGQGTQVTVSS” is “low polyreactivity”. On to “QVQLVESGGGLVQAGGSLRLSCAASGSTLGHNAMGWYRQAPGKERELVAGISWRGGSTYYADSVKGRFTISRDNAKNTVYLQMNSLKPEDTAVYYCAAVSYPAVYGFDYWGPGTQVTVSS”, for which the “polyreactivity (PSR sort gate)” value is given as “high polyreactivity”. The entry for “QVQLVESGGGLVQAGGSLRLSCAASGSTLGRNAMGWYRQAPGKERELVAGIDGSAGSTYYADSVKGRFTISRDNAKNTVYLQMNSLKPEDTAVYYCNADVIDLDYDYWGQGTQVTVSS” is “low polyreactivity”; for “QVQLVESGGGLVQAGGSLRLSCAASGSTLGRYAMGWYRQAPGKERELVAAISSSGTTYYADSVKGRFTISRDNAKNTVYFQMNSLKPEDTAVYYCNARGFRVARHAAWYQYYYWGQGTQVTVSS” it is “high polyreactivity”; for “QVQLVESGGGLVQAGGSLRLSCAASGSTLGRYAMGWYRQAPGKERELVASITWSDDSTYYADSVKGRFTISRDNAKNTVSLQMNSLKPEDTAVYYCAAAANLYTYRFYYWGQGTQVTVSS” it is “low polyreactivity”. The entry for “QVQLVESGGGLVQAGGSLRLSCAASGSTLGVNAMGWYRQAPGKEREFVAAITGRGGNTYYADSVKGRFTISRDNAKNTVYLQMNSLKPEDTAVYYCAARVKYTRYQSILDYYYWGQGTQVTVSS” is “high polyreactivity”; for “QVQLVESGGGLVQAGGSLRLSCAASGSTLGVYVMGWYRQAPGKERELVAAISRNGGSTYYADSVKARFTISRDNAKNTVYLQMNSLKPEDTAVYYCAARTVGRKACFDYWGQGTQVTVSS” it is “high polyreactivity”. Take “QVQLVESGGGLVQAGGSLRLSCAASGSTLGYYAMGWYRQAPGKERELVAAISGRGTSTYYADSVKGRFTISRDNAKTTVYLQMNSLKPEDSAVFYCAAQLFRELYWGQGTQVNVSS”: the “polyreactivity (PSR sort gate)” value is “high polyreactivity”. “QVQLVESGGGLVQAGGSLRLSCAASGSTLGYYAMGWYRQAPGKERELVAAISWRTDSTYYADSVKGRFTISRDNAKNTVYLQMNSLKPEDTAVYYCAAQGAYDTYYAQTYGYWGQGTQVTVSS”: the “polyreactivity (PSR sort gate)” value is “low polyreactivity”.

For the sequence “QVQLVESGGGLVQAGGSLRLSCAASGSTLGYYGMGWYRQAPGKERELVAAISGRGTSTYYADSVKGRCTISRDNAKNTVYLQMNSLKPEDTAVYYCAAQLFRELYWGQGTQVTVSS”, the “polyreactivity (PSR sort gate)” value is on record as “high polyreactivity”. As for “QVQLVESGGGLVQAGGSLRLSCAASGSTLGYYTMGWYIQAPGKERELVAAITRSGGSTYYADSVKGRFTISRDNAKNTVYLQMNSLKPEDTAVYYCAARSYQGTSSGRVTRRYDYWGQGTQVTVSS”, the entry is “high polyreactivity”; as for “QVQLVESGGGLVQAGGSLRLSCAASGSTLGYYTMGWYRQAPGKERELVAAISYGGGSTYYADSVKGRFTISRDNAKNTVYLQMNSLKPEDTAVYYCAARWGKSWRGYGYWGQGTQVTVSS”, “high polyreactivity”; as for “QVQLVESGGGLVQAGGSLRLSCAASGSTLLGNTMGWYRQAPGKERELVAAISWSGGSTYYADSVKGRFTISRDNAKNTVYLQMNSLKPEDTAVYYCNALGRENKGSYGYDYWGQGTQVTVSS”, “low polyreactivity”. The entry for “QVQLVESGGGLVQAGGSLRLSCAASGSTLLYYAMGWSRQAPGKERELVAAITSGARTYYADSVKGRFTISRDNAKNTVYLQMNSLKPEDTAVYYCNAYRTSWWRAYDYWGQGTQVTVSS” is “high polyreactivity”. As for “QVQLVESGGGLVQAGGSLRLSCAASGSTLNDYTMGWYRQAPGKERELVAAIRVSGARTFYADSVKGRFTISRDNAKNTVYLQMNSLKPEDTAVYYCAARWYIANPLSPSDYWGQGTQVTVSS”, the entry is “low polyreactivity”; as for “QVQLVESGGGLVQAGGSLRLSCAASGSTLNIYAMGWYRQAPGKERELVAAISWTDDTTYYADSVKGRFTISRDNAKNTVYLQMNSLKPEDTAVYYCAAEIYSWSDAQQYDYWGQGTQVTVSS”, “high polyreactivity”; as for “QVQLVESGGGLVQAGGSLRLSCAASGSTLNLYAMGWYRQAPGKEREVVAGITGGGSSTYYADSVKGRFTISRDNAKNTVYLQMNSLKPEDTAVYYCNVEPGYYYYRHWVAYSHGYGYWGQGTQVTVSS”, “low polyreactivity”.

Consider “QVQLVESGGGLVQAGGSLRLSCAASGSTLNSYAMGLYRQAPGKDRELVAAISWSGGSTYYADSVKGRFSISRDNAKNTVYLQMNSVKAEDTAVYYCNAAFWWDYAYGVDYWGQGTQVTVSS”, for which the “polyreactivity (PSR sort gate)” value is “low polyreactivity”. As for “QVQLVESGGGLVQAGGSLRLSCAASGSTLNSYVMGWYRQAPGKERELVATIRSGSSTNYADSVKGRFTISRDNAKNTVYLQMNSLKPEDTAVYYCAADAYSLCYDSWGQGTQVTVSS”, the entry is “low polyreactivity”; as for “QVQLVESGGGLVQAGGSLRLSCAASGSTLPAYTMAWYRQAPGKERELVAAISYRGGSTYYADSVKGRFTISRDNAKNTVYLQMNSLKPEDTAVYYCAAVYSVAYASTHYRIYDYWGQGTQVTVSS”, “high polyreactivity”.
